Experimental data taken from patent US7173007B1, “Therapy for microbial infections” (The Regents of the University of California, priority 2003, dated 2007).

B1: cathelin-like protein: recombinant human cathelin-like domain of hCAP18, residues 31-131 of SEQ ID NO:2, expressed in E. coli, His-tag cleaved by enterokinase (protein, listed as Homo sapiens)
chain: QVLSYKEAVLRAIDGINQRSSDANLYRLLDLDPRPTMDGDPDTPKPVSFTVKETVCPRTTQQSPEDCDFKKDGLVKRCMGTVTLNQARGSFDISCDKDNKR
B2: hCAP18/LL-37: recombinant human full-length cathelicidin, residues 31-170 of SEQ ID NO:2, inactive precursor (protein, listed as Homo sapiens)
chain: QVLSYKEAVLRAIDGINQRSSDANLYRLLDLDPRPTMDGDPDTPKPVSFTVKETVCPRTTQQSPEDCDFKKDGLVKRCMGTVTLNQARGSFDISCDKDNKRFALLGDFFRKSKEKIGKEFKRIVQRIKDFLRNLVPRTES

How the values were obtained:
human liver cathepsin L = target: T1, human liver cathepsin L (Homo sapiens, UniProt P07711); assay: Proteinase activity inhibition assay (hydrolysis of Z-Phe-Arg-AMC); type: biochemical
T1 construct: human liver cathepsin L (Calbiochem, Calif.); purchased Calbiochem; host or cells: human liver
Method: FIG. 2 show the proteinase inhibitory activity of recombinant cathelin-like protein. Hydrolysis of the fluorogenic substrate Z-Phe-Arg-AMC by cathepsin L (protease alone), and in the presence of cathelin-like protein (protease+cathelin). […] Slopes, intercepts, and correlation coefficients were calculated by linear regression. Data were recorded 10 times over 30 min and are representative of two experiments.
Proteinase activity inhibition assay. Proteinase inhibitory activity of recombinant cathelin-like protein was assayed spectrofluorometrically by measuring its inhibitory action against human liver cathepsin L (Calbiochem, Calif.). For the reaction assay, cathepsin L (0.1 mU) in the assay buffer ([…] sodium acetate, 60 mM acetic acid, 8 mM dithiothreitol, and 4 mM EDTA, pH 5.5, supplemented with 0.1% BRIJ 35) was preincubated for 2 min at 30° C. with 10^−6 M cathelin-like protein before adding […] of substrate Z-Phe-Arg-7-amido-4-methylcoumarin (Calbiochem). When hydrolyzed by cathepsin L, this substrate releases highly fluorescent 7-amido-4-methylcoumarin (AMC). AMC intensity was determined using spectrophotometer at 370 nm excitation and an emission wavelength of 460 nm. One unit was defined as the amount of enzyme that will hydrolyze 1.0 mmol of Z-Phe-Arg-AMC per min at 25° C., pH 5.5.
Proteinase inhibitory activity. To evaluate the possible protease inhibitory activity action of cathelin-like protein, the activity of human cathepsin L was measured in the presence or absence of recombinant cathelin-like protein using the fluorescent substrate Z-Phe-Arg-AMC.

MRSA (ATCC 33591) = assay: Radial diffusion (inhibition zone) assay; type: cell-based, Staphylococcus aureus; details: MRSA
Method: (§1) FIGS. 3A–C show Growth inhibition of MRSA, E. coli, and P. aeruginosa by cathelin-like protein. (a) Inhibition zone ssay on tryptone/agarose plates with MRSA. Clear circles show lack of bacterial growth. Lanes 1, 3, 5, bottom row: cathelin-like protein at […], 16 μM, respectively. Lane 2, top row:[…] of His-tagged cathelin-like protein before cleavage. Lane 4, top: enterokinase enzyme alone. All assays were performed in duplicate and repeated three times. (b), (c) CFU assay: growth inhibition of (b) MRSA and (c) E. coli, cultured in 10 mM phosphate and 1% TSB (pH 7.4) and then supplemented with different concentrations of human cathelin-like protein.
Antimicrobial assays. E. coli (ATCC 25922), Pseudomonas aeruginosa (ATCC 8427), Salmonella typhimurium (ATCC 13311), Proteus vulgaris (ATCC 8427), Staphylococcus epidermidis (ATCC 12228), and MRSA (ATCC 33591) isolates were maintained on trypticase soy broth (TSB) agar plates. Individual colonies were selected and cultured overnight in TSB, subcultured once at 1:50 in fresh TSB, and then grown to stationary phase for use in all experiments. The radial diffusion assay was performed in 0.5% agarose and 0.75% tryptone brought to ebullition and cooled to 43° C., and then mixed with […] of bacterial suspension and poured into a 10 cm Petri dish. […]

E. coli (ATCC 25922) = assay: Radial diffusion (inhibition zone) assay; type: cell-based
Method: (§2) Antimicrobial assays. E. coli (ATCC 25922), Pseudomonas aeruginosa (ATCC 8427), Salmonella typhimurium (ATCC 13311), Proteus vulgaris (ATCC 8427), Staphylococcus epidermidis (ATCC 12228), and MRSA (ATCC 33591) isolates were maintained on trypticase soy broth (TSB) agar plates. Individual colonies were selected and cultured overnight in TSB, subcultured once at 1:50 in fresh TSB, and then grown to stationary phase for use in all experiments. The radial diffusion assay was performed in 0.5% agarose and 0.75% tryptone brought to ebullition and cooled to 43° C., and then mixed with […] of bacterial suspension and poured into a 10 cm Petri dish. A series of small wells (diameter, 3 mm) were punched in the plate after the agarose solidified. Two microliters of test samples were applied in each well. Plates were incubated at 37° C. overnight to allow visible growth of bacteria. Antibacterial activity was indicated by the clear zone (no bacterial growth) around the well.
(§3) Antimicrobial activity of recombinant cathelin-like protein. Recombinant cathelicidins were tested for antimicrobial activity using a standard radial diffusion assay. Different concentrations of the cathelin-like protein were loaded into wells on assay plates containing Gram-positive MRSA, S. epidermidis, and strains of the Gram-negative bacterial species E. coli, S. enteritidis, P. vulgaris, and P. aeruginosa. […] Similarly, cathelin-like protein inhibited growth of S. epidermidis ([…]) but not S. enteritidis or P. vulgaris.

[1] = system: Proteus vulgaris (ATCC 8427); assay: Radial diffusion (inhibition zone) assay; type: cell-based; details: P. vulgaris
Method: as §2, §3

[2] = system: Pseudomonas aeruginosa (ATCC 8427); assay: Radial diffusion (inhibition zone) assay; type: cell-based; details: P. aeruginosa
Method: as §2, §3

S. enteritidis = assay: Radial diffusion (inhibition zone) assay; type: cell-based
Method: as §2, §3

[3] = system: Staphylococcus epidermidis (ATCC 12228); assay: Radial diffusion (inhibition zone) assay; type: cell-based; details: S. epidermidis
Method: as §2, §3

E. coli = assay: Colony-forming assay (CFU), liquid phase; type: cell-based; parameters: unit of the concentration uncertain; details: 10 mM phosphate, 1% TSB
Method: as §1
(§4) The colony-forming assay (CFU) was performed. Bacterial cultures (E. coli or MRSA) were collected at the logarithmic phase of growth in TSB, washed twice with phosphate-buffered saline, pH 7.4, and diluted to 104 CFU per ml in 10 mM phosphate buffer, pH 7.4, Na2HPO4/NaH2PO4-1% TSB (g per 1). Forty-five microliters of bacterial suspension were mixed with […] of H2O (control) or with […] of different concentrations of cathelin-like proteins, and the mixture was incubated at 37° C. Every 30 min, a […] aliquot of the reaction mixture was plated directly onto a TSB agar plate and then incubated at 37° C. overnight for enumeration of CFU. Data are reported as growth index=final CFU/CFU in initial inoculum. […]

MRSA = assay: Colony-forming assay (CFU), liquid phase; type: cell-based, Staphylococcus aureus; details: 10 mM phosphate, 1% TSB, pH 7.4
Method: as §1, §4

T1 sequence (P07711 114-288 limits assumed): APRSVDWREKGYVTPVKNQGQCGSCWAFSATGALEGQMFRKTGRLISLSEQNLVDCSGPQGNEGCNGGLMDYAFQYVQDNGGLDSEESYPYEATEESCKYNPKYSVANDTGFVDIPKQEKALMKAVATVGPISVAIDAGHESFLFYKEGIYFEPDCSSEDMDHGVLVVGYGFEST
T1 sequence (P07711 292-333 limits assumed): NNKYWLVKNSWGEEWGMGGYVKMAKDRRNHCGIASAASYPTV

| Molecule | slope of fluorescence generation (linear regression) (human liver cathepsin L; cathepsin L + cathelin-like protein, cathepsin L alone slope 1.31) | hydrolytic activity of cathepsin L inhibited by (human liver cathepsin L; protein added at final concentration of 10^-6 M, substrate Z-Phe-Arg-AMC) | minimal inhibitory activity against growth, concentration (MRSA (ATCC 33591)) | minimal inhibitory activity against growth, concentration (E. coli (ATCC 25922)) | growth inhibition [1] | growth inhibition [2] | growth inhibition (S. enteritidis) | minimal inhibitory activity against growth, concentration [3] | effect on growth (CFU) (E. coli; 16 (unit uncertain), pH 7.4, compared to untreated controls) | effect on growth (CFU) (MRSA; concentration not given) | cathepsin L inhibitory activity (human liver cathepsin L; parallel experiments) | minimal inhibitory activity against growth, concentration [1] | minimal inhibitory activity against growth, concentration [2] | minimal inhibitory activity against growth, concentration (S. enteritidis) | effect on growth (CFU) (E. coli; 32 (unit uncertain), pH 7.4) | effect on growth (CFU) (MRSA) |
| --- | --- | --- | --- | --- | --- | --- | --- | --- | --- | --- | --- | --- | --- | --- | --- | --- |
| B1 | 0.71 | 46% | 32 mM | 16 mM | not | did not inhibit growth | not | 32 mM | marked growth inhibition | decreased MRSA CFU for the first 15 min and then was bacteriostatic | – | – | – | – | – | – |
| B2 | – | – | greater than 64 mM | greater than 64 mM | – | – | – | greater than 64 mM | – | – | did not demonstrate inhibitory activity | greater than 64 mM | greater than 64 mM | greater than 64 mM | did not show any activity | did not show any activity |
